Experimental data taken from US20230364254A1, “METHODS FOR TREATING CANCERS WITH ANTIBODY DRUG CONJUGATES (ADC) THAT BIND TO 191P4D12 PROTEINS” (priority 2020, published 2023).

Tested on: patients with locally advanced or metastatic urothelial cancer
Experiment: Same phase 2 study: safety (adverse events, NCI CTCAE v4.03)
Format: in vivo, human
Description: Safety assessments will be based on the information collected through the safety surveillance process and will include the data from recorded adverse events (AEs) including SAEs, recording of concomitant medication, physical examination findings, cardiac monitoring, and laboratory tests.
The assessment of safety during the course of this study will consist of the surveillance and recording of AEs including SAEs, recording of concomitant medication, and measurements of protocol-specified physical examination findings, cardiac monitoring, and laboratory tests.
AE severity should be graded using the National Cancer Institute's Common Terminology Criteria for Adverse Events (NCI CTCAE), Version 4.03. These criteria are provided in the study manual.
An overview of AEs will provide a tabulation of the incidence of all AEs, treatment-emergent AEs, treatment-related AEs, Grade 3 and higher AEs. SAEs, treatment-related SAEs, deaths, and AEs leading to study treatment discontinuation. Adverse events will be defined as treatment emergent if they are newly occurring or worsened following study treatment.
AEs will be classified by system organ class and preferred tem using the Medical Dictionary for Regulatory Activities (MedDRA) and graded using NCI CTCAE, Version 4.03.
The incidence of AEs will be summarized by system organ class, preferred term, severity and relationship to study drug. In the event of multiple occurrences of the same AE in one patient, the AE will be counted once as the occurrence for the maximum grade. AEs leading to premature discontinuation of study drug will be summarized and listed in the same manner.

[1] = Cohort 1 (N = 125), count (percent)

Substance: enfortumab vedotin: Nectin-4 directed ADC: fully human anti-nectin-4 IgG1 kappa antibody (AGS-22C3) conjugated to MMAE via protease-cleavable maleimidocaproyl valine-citrulline linker
- AE of special interest, All Grade: Hyperglycemia (Cohort 1 (N = 125)): 20 (16) N (%)
- AE of special interest, All Grade: IRR (Cohort 1 (N = 125)): 8 (6.4) N (%)
- AE of special interest, All Grade: Ocular Events, Blurred Vision (Cohort 1 (N = 125)): 21 (16.8) N (%)
- AE of special interest, All Grade: Ocular Events, Corneal Disorders (Cohort 1 (N = 125)): 18 (14.4) N (%)
- AE of special interest, All Grade: Ocular Events, Dry Eye Disorders (Cohort 1 (N = 125)): 51 (40.8) N (%)
- AE of special interest, All Grade: Peripheral Neuropathy (Cohort 1 (N = 125)): 70 (56) N (%)
- AE of special interest, All Grade: Rash (Cohort 1 (N = 125)): 67 (53.6) N (%)
- AE of special interest, ≥Gr 3: Hyperglycemia (Cohort 1 (N = 125)): 10 (8) N (%)
- AE of special interest, ≥Gr 3: IRR (Cohort 1 (N = 125)): 1 (0.8) N (%)
- AE of special interest, ≥Gr 3: Peripheral Neuropathy (Cohort 1 (N = 125)): 5 (4) N (%)
- AE of special interest, ≥Gr 3: Rash (Cohort 1 (N = 125)): 15 (12.0) N (%)
- Any TEAEs (Cohort 1 (N = 125)): 125 (100.0) n (%)
- Any TEAEs leading to death (Cohort 1 (N = 125)): 7 (5.6) n (%)
- Any TEAEs leading to treatment discontinuation (Cohort 1 (N = 125)): 21 (16.8) n (%)
- Any grade 3-5 TEAEs (Cohort 1 (N = 125)): 92 (73.6) n (%)
- Any serious TEAEs (Cohort 1 (N = 125)): 58 (46.4) n (%)
- SAEs (All): Acute kidney injury (Cohort 1 (N = 125)): 4 (3.2) n (%)
- SAEs (All): Cellulitis (Cohort 1 (N = 125)): 6 (4.8) n (%)
- SAEs (All): Diarrhoea (Cohort 1 (N = 125)): 3 (2.4) n (%)
- SAEs (All): Febrile neutropenia (Cohort 1 (N = 125)): 5 (4.0) n (%)
- SAEs (All): Nausea (Cohort 1 (N = 125)): 3 (2.4) n (%)
- SAEs (All): Overall (Cohort 1 (N = 125)): 59 (47.2) n (%)
- SAEs (All): Pneumonia (Cohort 1 (N = 125)): 3 (2.4) n (%)
- SAEs (All): Sepsis (Cohort 1 (N = 125)): 4 (3.2) n (%)
- SAEs (All): Urinary tract infection (Cohort 1 (N = 125)): 6 (4.8) n (%)
- SAEs (Related): Acute kidney injury (Cohort 1 (N = 125)): 1 (0.8) n (%)
- SAEs (Related): Cellulitis (Cohort 1 (N = 125)): 2 (1.6) n (%)
- SAEs (Related): Diarrhoea (Cohort 1 (N = 125)): 1 (0.8) n (%)
- SAEs (Related): Febrile neutropenia (Cohort 1 (N = 125)): 5 (4.0) n (%)
- SAEs (Related): Nausea (Cohort 1 (N = 125)): 3 (2.4) n (%)
- SAEs (Related): Overall (Cohort 1 (N = 125)): 24 (19.2) n (%)
- Treatment-related AE leading to discontinuation: Asthenia (Cohort 1 (N = 125)): 1 (0.8) n (%)
- Treatment-related AE leading to discontinuation: Drug eruption (Cohort 1 (N = 125)): 1 (0.8) n (%)
- Treatment-related AE leading to discontinuation: Enterocolitis (Cohort 1 (N = 125)): 1 (0.8) n (%)
- Treatment-related AE leading to discontinuation: Fatigue (Cohort 1 (N = 125)): 1 (0.8) n (%)
- Treatment-related AE leading to discontinuation: Hyperglycaemia (Cohort 1 (N = 125)): 1 (0.8) n (%)
- Treatment-related AE leading to discontinuation: Interstitial lung disease (Cohort 1 (N = 125)): 1 (0.8) n (%)
- Treatment-related AE leading to discontinuation: Overall (Cohort 1 (N = 125)): 15 (12.0) n (%)
- Treatment-related AE leading to discontinuation: Peripheral sensory neuropathy (Cohort 1 (N = 125)): 8 (6.4) n (%)
- Treatment-related AE leading to discontinuation: Stevens-Johnson syndrome (Cohort 1 (N = 125)): 1 (0.8) n (%)
- Treatment-related TEAEs (Cohort 1 (N = 125)): 117 (93.6) n (%)
- Treatment-related TEAEs (all grades): Alopecia (Cohort 1 (N = 125)): 62 (49.6) n (%)
- Treatment-related TEAEs (all grades): Anaemia (Cohort 1 (N = 125)): 27 (21.6) n (%)
- Treatment-related TEAEs (all grades): Aspartate aminotransferase increased (Cohort 1 (N = 125)): 17 (13.6) n (%)
- Treatment-related TEAEs (all grades): Decreased appetite (Cohort 1 (N = 125)): 55 (44.0) n (%)
- Treatment-related TEAEs (all grades): Diarrhoea (Cohort 1 (N = 125)): 41 (32.8) n (%)
- Treatment-related TEAEs (all grades): Dry eye (Cohort 1 (N = 125)): 25 (20.0) n (%)
- Treatment-related TEAEs (all grades): Dry skin (Cohort 1 (N = 125)): 30 (24.0) n (%)
- Treatment-related TEAEs (all grades): Dysgeusia (Cohort 1 (N = 125)): 47 (37.6) n (%)
- Treatment-related TEAEs (all grades): Fatigue (Cohort 1 (N = 125)): 62 (49.6) n (%)
- Treatment-related TEAEs (all grades): Lacrimation increased (Cohort 1 (N = 125)): 21 (16.8) n (%)
- Treatment-related TEAEs (all grades): Nausea (Cohort 1 (N = 125)): 50 (40.0) n (%)
- Treatment-related TEAEs (all grades): Neutropenia (Cohort 1 (N = 125)): 13 (10.4) n (%)
- Treatment-related TEAEs (all grades): Oedema peripheral (Cohort 1 (N = 125)): 15 (12.0) n (%)
- Treatment-related TEAEs (all grades): Overall (Cohort 1 (N = 125)): 117 (93.6) n (%)
- Treatment-related TEAEs (all grades): Peripheral sensory neuropathy (Cohort 1 (N = 125)): 50 (40.0) n (%)
- Treatment-related TEAEs (all grades): Pruritus (Cohort 1 (N = 125)): 32 (25.6) n (%)
- Treatment-related TEAEs (all grades): Rash maculo-papular (Cohort 1 (N = 125)): 28 (22.4) n (%)
- Treatment-related TEAEs (all grades): Vomiting (Cohort 1 (N = 125)): 19 (15.2) n (%)
- Treatment-related TEAEs (all grades): Weight decreased (Cohort 1 (N = 125)): 29 (23.2) n (%)
- Treatment-related TEAEs leading to death (Cohort 1 (N = 125)): 0 n (%)
- Treatment-related TEAEs leading to treatment discontinuation (Cohort 1 (N = 125)): 15 (12.0) n (%)
- Treatment-related TEAEs ≥Grade 3: Acute kidney injury (Cohort 1 (N = 125)): 1 (0.8) n (%)
- Treatment-related TEAEs ≥Grade 3: Amylase increased (Cohort 1 (N = 125)): 3 (2.4) n (%)
- Treatment-related TEAEs ≥Grade 3: Anaemia (Cohort 1 (N = 125)): 9 (7.2) n (%)
- Treatment-related TEAEs ≥Grade 3: Aspartate aminotransferase increased (Cohort 1 (N = 125)): 4 (3.2) n (%)
- Treatment-related TEAEs ≥Grade 3: Decreased appetite (Cohort 1 (N = 125)): 1 (0.8) n (%)
- Treatment-related TEAEs ≥Grade 3: Diarrhoea (Cohort 1 (N = 125)): 3 (2.4) n (%)
- Treatment-related TEAEs ≥Grade 3: Fatigue (Cohort 1 (N = 125)): 8 (6.4) n (%)
- Treatment-related TEAEs ≥Grade 3: Febrile neutropenia (Cohort 1 (N = 125)): 5 (4.0) n (%)
- Treatment-related TEAEs ≥Grade 3: Hyperglycaemia (Cohort 1 (N = 125)): 5 (4.0) n (%)
- Treatment-related TEAEs ≥Grade 3: Hyponatraemia (Cohort 1 (N = 125)): 3 (2.4) n (%)
- Treatment-related TEAEs ≥Grade 3: Lipase increased (Cohort 1 (N = 125)): 5 (4.0) n (%)
- Treatment-related TEAEs ≥Grade 3: Neutropenia (Cohort 1 (N = 125)): 10 (8.0) n (%)
- Treatment-related TEAEs ≥Grade 3: Neutrophil count decreased (Cohort 1 (N = 125)): 3 (2.4) n (%)
- Treatment-related TEAEs ≥Grade 3: Overall (Cohort 1 (N = 125)): 70 (56.0) n (%)
- Treatment-related TEAEs ≥Grade 3: Peripheral sensory neuropathy (Cohort 1 (N = 125)): 2 (1.6) n (%)
- Treatment-related TEAEs ≥Grade 3: Pruritus (Cohort 1 (N = 125)): 2 (1.6) n (%)
- Treatment-related TEAEs ≥Grade 3: Rash erythematous (Cohort 1 (N = 125)): 4 (3.2) n (%)
- Treatment-related TEAEs ≥Grade 3: Rash maculo-papular (Cohort 1 (N = 125)): 5 (4.0) n (%)
- Treatment-related grade 3-5 TEAEs (Cohort 1 (N = 125)): 70 (56.9) n (%)
- Treatment-related serious TEAEs (Cohort 1 (N = 125)): 24 (19.2) n (%)
- TEAEs leading to death (excluding disease progression): Acute respiratory failure [1]: 1 (0.8)
- TEAEs leading to death (excluding disease progression): Cardiac disorder [1]: 1 (0.8)
- TEAEs leading to death (excluding disease progression): Overall [1]: 4 (3.2)
- TEAEs leading to death (excluding disease progression): Pneumonia aspiration [1]: 1 (0.8)
- TEAEs leading to death (excluding disease progression): Sepsis [1]: 1 (0.8)
- AE of special interest, All Grade: Hyperglycemia (Cohort 2 (N = 89)): 16 (18) N (%)
- AE of special interest, All Grade: IRR (Cohort 2 (N = 89)): 6 (6.7) N (%)
